Laboratory results: paper PMC5992219, “HuR regulates telomerase activity through TERC methylation”

B1: TERC 37-47 oligo (UUUUUU motif) (ssRNA)
RNA: AUUUUUUGUCU
B2: TERC 98-107 oligo (GUUUUUC motif) (ssRNA)
RNA: GUUUUUCUCG
B3: ITC negative control RNA (ssRNA)
RNA: CUAGACUAGGACUC

Key:
[1] = system: HuR (HeLa lysate) (human (HeLa)); test: pull-down; settings: biotin-UTP, ITC: 10 mM Tris pH 8.0, 100 mM NaCl, 25 C, UV-crosslinking EMSA: 50 mM Tris pH 7.0, 150 mM NaCl, 0.25 mg/ml tRNA, 0.025 mg/ml BSA, pull-down: 1 ug RNA …
[2] = biological target: HuR (ITC, SUMO tag removed) (UniProt Q15717 1-326); test: ITC; ITC: 10 mM Tris pH 8.0, 100 mM NaCl, 25 C; UV-crosslinking EMSA: 50 mM Tris pH 7.0, 150 mM NaCl, 0.25 mg/ml tRNA, 0.025 mg/ml BSA, 25 C; pull-down: 1 ug RNA, 100 ug cytoplasmic extract, room temperature, 30 min; settings: protein: recombinant; tags: N-terminal 6xHis-SUMO removed by Ulp1
Sequence of HuR (ITC, SUMO tag removed) (Q15717 whole entry): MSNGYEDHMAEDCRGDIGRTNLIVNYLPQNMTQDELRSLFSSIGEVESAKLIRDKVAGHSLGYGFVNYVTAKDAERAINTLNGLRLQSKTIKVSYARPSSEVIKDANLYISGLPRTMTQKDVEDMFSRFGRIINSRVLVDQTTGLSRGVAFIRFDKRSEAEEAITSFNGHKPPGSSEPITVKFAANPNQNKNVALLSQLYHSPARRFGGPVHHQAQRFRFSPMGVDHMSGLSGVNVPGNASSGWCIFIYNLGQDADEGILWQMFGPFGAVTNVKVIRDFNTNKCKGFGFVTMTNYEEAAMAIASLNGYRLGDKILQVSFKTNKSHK

Molecule	binding signal (% reduction vs WT) [1]	Kd [2] [µM]	other results
TERC U40A	70.7	–	–
TERC U100A	70.4	–	–
B1	–	~0.0243	–
B2	–	~0.0704	–
B3	–	–	binding result [2]: no binding
